Literature values in publication PMC6116012.

Tests used:
PAF15 (Homo sapiens) = PAF15 (Homo sapiens) (UniProt Q15004)
[1] = biological target: PAF15 extended PIP-box peptide PIP-box (Homo sapiens) (UniProt Q15004)
FEN1 (Homo sapiens) = FEN1 (Homo sapiens) (UniProt P39748)
Sequence of UniProt P39748 (P39748 whole entry): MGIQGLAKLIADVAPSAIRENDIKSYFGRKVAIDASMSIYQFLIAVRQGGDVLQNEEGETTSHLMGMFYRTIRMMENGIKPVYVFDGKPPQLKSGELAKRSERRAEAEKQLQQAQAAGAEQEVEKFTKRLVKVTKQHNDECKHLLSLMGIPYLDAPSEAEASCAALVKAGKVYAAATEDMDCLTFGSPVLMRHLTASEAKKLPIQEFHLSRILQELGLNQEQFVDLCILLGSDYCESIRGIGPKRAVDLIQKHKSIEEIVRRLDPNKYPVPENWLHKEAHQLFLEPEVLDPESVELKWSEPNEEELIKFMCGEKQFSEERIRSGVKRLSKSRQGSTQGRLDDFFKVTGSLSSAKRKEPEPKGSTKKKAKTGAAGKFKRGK

## PCNA (from UniProt P12004)
PAF15 (Homo sapiens)
  Kd: 1100 nM
[1]
  Kd: 5600 nM
FEN1 (Homo sapiens)
  Kd: 60 nM
